T1: TNFR1 (Homo sapiens, UniProt P19438)
T1 chain: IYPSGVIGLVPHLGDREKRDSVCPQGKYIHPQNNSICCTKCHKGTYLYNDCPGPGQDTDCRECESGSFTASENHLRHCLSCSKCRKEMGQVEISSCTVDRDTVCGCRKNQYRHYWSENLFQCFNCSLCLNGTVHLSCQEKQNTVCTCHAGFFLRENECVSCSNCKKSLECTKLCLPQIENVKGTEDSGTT

B1: E95T (designed binder)
chain: MTLQELLREEALRRAEAEAFRYALELLAEKFPEQKEYLLDLAEEIESQIRSLSGVDVEDVRKFLDKEWAWVKELLAEHPAELAEVEAARAARLATLRAEVEAKVAA
B2: E101G (designed binder)
chain: MTLQELLREEALRRAEAEAFRYALELLAEKFPEQKEYLLDLAEEIESQIRSLSGVDVEDVRKFLDKEWAWVKELLAEHPAELAEVEAARAARLAELRAEVGAKVAA
B3: A98N (designed binder)
chain: MTLQELLREEALRRAEAEAFRYALELLAEKFPEQKEYLLDLAEEIESQIRSLSGVDVEDVRKFLDKEWAWVKELLAEHPAELAEVEAARAARLAELRNEVEAKVAA
B4: R61K (designed binder)
chain: MTLQELLREEALRRAEAEAFRYALELLAEKFPEQKEYLLDLAEEIESQIRSLSGVDVEDVKKFLDKEWAWVKELLAEHPAELAEVEAARAARLAELRAEVEAKVAA
B5: A76I (designed binder)
chain: MTLQELLREEALRRAEAEAFRYALELLAEKFPEQKEYLLDLAEEIESQIRSLSGVDVEDVRKFLDKEWAWVKELLIEHPAELAEVEAARAARLAELRAEVEAKVAA
B6: L75F (designed binder)
chain: MTLQELLREEALRRAEAEAFRYALELLAEKFPEQKEYLLDLAEEIESQIRSLSGVDVEDVRKFLDKEWAWVKELFAEHPAELAEVEAARAARLAELRAEVEAKVAA
B7: R14P (designed binder)
chain: MTLQELLREEALRPAEAEAFRYALELLAEKFPEQKEYLLDLAEEIESQIRSLSGVDVEDVRKFLDKEWAWVKELLAEHPAELAEVEAARAARLAELRAEVEAKVAA
B8: E77G (designed binder)
chain: MTLQELLREEALRRAEAEAFRYALELLAEKFPEQKEYLLDLAEEIESQIRSLSGVDVEDVRKFLDKEWAWVKELLAGHPAELAEVEAARAARLAELRAEVEAKVAA
B9: E43S (designed binder)
chain: MTLQELLREEALRRAEAEAFRYALELLAEKFPEQKEYLLDLASEIESQIRSLSGVDVEDVRKFLDKEWAWVKELLAEHPAELAEVEAARAARLAELRAEVEAKVAA
B10: I45C (designed binder)
chain: MTLQELLREEALRRAEAEAFRYALELLAEKFPEQKEYLLDLAEECESQIRSLSGVDVEDVRKFLDKEWAWVKELLAEHPAELAEVEAARAARLAELRAEVEAKVAA
B11: E73T (designed binder)
chain: MTLQELLREEALRRAEAEAFRYALELLAEKFPEQKEYLLDLAEEIESQIRSLSGVDVEDVRKFLDKEWAWVKTLLAEHPAELAEVEAARAARLAELRAEVEAKVAA
B12: D40E (designed binder)
chain: MTLQELLREEALRRAEAEAFRYALELLAEKFPEQKEYLLELAEEIESQIRSLSGVDVEDVRKFLDKEWAWVKELLAEHPAELAEVEAARAARLAELRAEVEAKVAA
B13: R89C (designed binder)
chain: MTLQELLREEALRRAEAEAFRYALELLAEKFPEQKEYLLDLAEEIESQIRSLSGVDVEDVRKFLDKEWAWVKELLAEHPAELAEVEAACAARLAELRAEVEAKVAA
B14: K66S (designed binder)
chain: MTLQELLREEALRRAEAEAFRYALELLAEKFPEQKEYLLDLAEEIESQIRSLSGVDVEDVRKFLDSEWAWVKELLAEHPAELAEVEAARAARLAELRAEVEAKVAA
B15: L12P (designed binder)
chain: MTLQELLREEAPRRAEAEAFRYALELLAEKFPEQKEYLLDLAEEIESQIRSLSGVDVEDVRKFLDKEWAWVKELLAEHPAELAEVEAARAARLAELRAEVEAKVAA
B16: R97H (designed binder)
chain: MTLQELLREEALRRAEAEAFRYALELLAEKFPEQKEYLLDLAEEIESQIRSLSGVDVEDVRKFLDKEWAWVKELLAEHPAELAEVEAARAARLAELHAEVEAKVAA
B17: L64D (designed binder)
chain: MTLQELLREEALRRAEAEAFRYALELLAEKFPEQKEYLLDLAEEIESQIRSLSGVDVEDVRKFDDKEWAWVKELLAEHPAELAEVEAARAARLAELRAEVEAKVAA
B18: A94K (designed binder)
chain: MTLQELLREEALRRAEAEAFRYALELLAEKFPEQKEYLLDLAEEIESQIRSLSGVDVEDVRKFLDKEWAWVKELLAEHPAELAEVEAARAARLKELRAEVEAKVAA
B19: M1P (designed binder)
chain: PTLQELLREEALRRAEAEAFRYALELLAEKFPEQKEYLLDLAEEIESQIRSLSGVDVEDVRKFLDKEWAWVKELLAEHPAELAEVEAARAARLAELRAEVEAKVAA
B20: V104D (designed binder)
chain: MTLQELLREEALRRAEAEAFRYALELLAEKFPEQKEYLLDLAEEIESQIRSLSGVDVEDVRKFLDKEWAWVKELLAEHPAELAEVEAARAARLAELRAEVEAKDAA
B21: E86G (designed binder)
chain: MTLQELLREEALRRAEAEAFRYALELLAEKFPEQKEYLLDLAEEIESQIRSLSGVDVEDVRKFLDKEWAWVKELLAEHPAELAEVGAARAARLAELRAEVEAKVAA
B22: P79K (designed binder)
chain: MTLQELLREEALRRAEAEAFRYALELLAEKFPEQKEYLLDLAEEIESQIRSLSGVDVEDVRKFLDKEWAWVKELLAEHKAELAEVEAARAARLAELRAEVEAKVAA
B23: R50H (designed binder)
chain: MTLQELLREEALRRAEAEAFRYALELLAEKFPEQKEYLLDLAEEIESQIHSLSGVDVEDVRKFLDKEWAWVKELLAEHPAELAEVEAARAARLAELRAEVEAKVAA
B24: A17M (designed binder)
chain: MTLQELLREEALRRAEMEAFRYALELLAEKFPEQKEYLLDLAEEIESQIRSLSGVDVEDVRKFLDKEWAWVKELLAEHPAELAEVEAARAARLAELRAEVEAKVAA
B25: E33C (designed binder)
chain: MTLQELLREEALRRAEAEAFRYALELLAEKFPCQKEYLLDLAEEIESQIRSLSGVDVEDVRKFLDKEWAWVKELLAEHPAELAEVEAARAARLAELRAEVEAKVAA
B26: T2M (designed binder)
chain: MMLQELLREEALRRAEAEAFRYALELLAEKFPEQKEYLLDLAEEIESQIRSLSGVDVEDVRKFLDKEWAWVKELLAEHPAELAEVEAARAARLAELRAEVEAKVAA
B27: R8E (designed binder)
chain: MTLQELLEEEALRRAEAEAFRYALELLAEKFPEQKEYLLDLAEEIESQIRSLSGVDVEDVRKFLDKEWAWVKELLAEHPAELAEVEAARAARLAELRAEVEAKVAA
B28: A102H (designed binder)
chain: MTLQELLREEALRRAEAEAFRYALELLAEKFPEQKEYLLDLAEEIESQIRSLSGVDVEDVRKFLDKEWAWVKELLAEHPAELAEVEAARAARLAELRAEVEHKVAA
B29: E10M (designed binder)
chain: MTLQELLREMALRRAEAEAFRYALELLAEKFPEQKEYLLDLAEEIESQIRSLSGVDVEDVRKFLDKEWAWVKELLAEHPAELAEVEAARAARLAELRAEVEAKVAA
B30: P32W (designed binder)
chain: MTLQELLREEALRRAEAEAFRYALELLAEKFWEQKEYLLDLAEEIESQIRSLSGVDVEDVRKFLDKEWAWVKELLAEHPAELAEVEAARAARLAELRAEVEAKVAA
B31: W68L (designed binder)
chain: MTLQELLREEALRRAEAEAFRYALELLAEKFPEQKEYLLDLAEEIESQIRSLSGVDVEDVRKFLDKELAWVKELLAEHPAELAEVEAARAARLAELRAEVEAKVAA
B32: L39P (designed binder)
chain: MTLQELLREEALRRAEAEAFRYALELLAEKFPEQKEYLPDLAEEIESQIRSLSGVDVEDVRKFLDKEWAWVKELLAEHPAELAEVEAARAARLAELRAEVEAKVAA
B33: V57K (designed binder)
chain: MTLQELLREEALRRAEAEAFRYALELLAEKFPEQKEYLLDLAEEIESQIRSLSGVDKEDVRKFLDKEWAWVKELLAEHPAELAEVEAARAARLAELRAEVEAKVAA
B34: E25T (designed binder)
chain: MTLQELLREEALRRAEAEAFRYALTLLAEKFPEQKEYLLDLAEEIESQIRSLSGVDVEDVRKFLDKEWAWVKELLAEHPAELAEVEAARAARLAELRAEVEAKVAA

Target: T1, TNFR1
Experiment: yeast display SC50

Binder | apparent Kd (screen) [nM]
B1 | 0.539
B2 | 0.49
B3 | 0.869
B4 | 0.446
B5 | 0.653
B6 | 1.27
B7 | 0.49
B8 | 0.593
B9 | 0.49
B10 | 2.48
B11 | 0.718
B12 | 0.593
B13 | 0.653
B14 | 0.49
B15 | 1.05
B16 | 0.593
B17 | 26.9

Binder | apparent Kd (screen) [nM]
B18 | 0.653
B19 | 0.446
B20 | 0.718
B21 | 0.539
B22 | 0.593
B23 | 0.539
B24 | 0.446
B25 | 0.593
B26 | 0.49
B27 | 0.49
B28 | 1.16
B29 | 2.48
B30 | 0.49
B31 | 0.539
B32 | 5.84
B33 | 1.16
B34 | 0.405

Source: PMC12416549 (2024)
